Earlier results as cited in article PMC1562422.

Legend:
[1] = target: IL2 receptor β chain (Homo sapiens) (UniProt P14784); test: ITC
[2] = target: IL2 receptor β chain (Homo sapiens) (UniProt P14784); test: SPR
[3] = target: IL2 receptor α chain (Homo sapiens) (UniProt P01589); test: ITC
[4] = target: IL2 receptor γ chain (Homo sapiens) (UniProt P31785)
Chain of UniProt P31785 (P31785 23-262): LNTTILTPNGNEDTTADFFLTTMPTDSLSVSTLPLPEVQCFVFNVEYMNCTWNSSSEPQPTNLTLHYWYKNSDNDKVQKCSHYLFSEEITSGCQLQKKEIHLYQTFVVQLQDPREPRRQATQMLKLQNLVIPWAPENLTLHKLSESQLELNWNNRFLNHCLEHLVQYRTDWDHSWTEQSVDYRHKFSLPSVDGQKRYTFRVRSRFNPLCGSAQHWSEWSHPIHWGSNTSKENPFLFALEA

Chain of IL2 (P60568 21-153): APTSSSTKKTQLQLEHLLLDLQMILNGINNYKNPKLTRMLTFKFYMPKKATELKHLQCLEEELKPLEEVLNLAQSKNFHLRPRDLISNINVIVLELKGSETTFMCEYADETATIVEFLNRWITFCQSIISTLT
Chain of UniProt P14784 (P14784 27-240): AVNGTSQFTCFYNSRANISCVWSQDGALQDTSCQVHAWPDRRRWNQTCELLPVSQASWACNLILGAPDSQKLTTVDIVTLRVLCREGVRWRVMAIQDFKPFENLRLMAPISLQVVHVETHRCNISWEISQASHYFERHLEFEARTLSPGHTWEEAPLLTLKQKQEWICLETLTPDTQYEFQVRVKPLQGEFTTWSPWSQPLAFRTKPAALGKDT

| Kd [1] [nM] | Kd [2] [nM] | Kd [3] [nM] | Kd [4] [nM] | Substance |
| --- | --- | --- | --- | --- |
| 278 |  |  |  | IL2 receptor α chain (from UniProt P01589) |
| 144 | 450 | 10 | > 700000 | IL2 (from UniProt P60568) |
